Experimental data from patent publication US20200071406A1 (AGENCY FOR SCIENCE TECHNOLOGY AND RESEARCH, published 2020).

Biological target: T1, soluble peptide MHC complex of p53125-134 and soluble HLA*A2402 (human)
T1 construct: Soluble complex used for phage selection, ELISA and SPR; also called p53-A24; p53-A24 monomers
Assay: surface plasmon resonance

Kd: 364 nM
B1: P1C1_gl (antibody, V domains shown)
VH: QVQLQESGPGLVKPSQTLSLTCTVSGGSISSGGYYWSWIRQHPGKGLEWIGYIYYSGSTYYNPSLKSRVTISVDTSKNQFSLKLSSVTAADTAVYYCARENFGAFDHWGQGTLVTVSS
VL: QSVLTQPPSVSGAPGQRVTISCTGSSSNIGADYETHWYQQLPGTAPKLLIYGNTNRPSGVPDRFSGSKSGTSASLAITGLQAEDEADYYCQSYDSNLSAWVFGGGTKLTILS
notes: it induces ADCC, so it has an Fc; also called germline version of P1C1; original germline clone
